1 molecule from US7884067B2, “Peptides derived from cadherin and methods of use thereof” (Mount Sinai School of Medicine of New York University, priority 2001, dated 2011) can be followed below.

One assay concerns c-fos. Kind of assay: c-fos mRNA (RT-PCR) and protein (Western blot) in L cells. The assay is classed as cell-based. The procedure: Reverse Transcriptase (RT)-PCR Analysis. Total RNA was extracted from cells using a RNeasy Mini Kit (Qiagen) according to instructions by the manufacturer. Analysis of gene expression was performed using semiquantitative RT-PCR. The following primers were used: 5′-[…]-3′ (SEQ ID NO: 13) and 5′-[…]-3′ (SEQ ID NO: 14) for c-fos; 5′-[…]-3′ (SEQ ID NO: 15) and 5′-[…]-3′ (SEQ ID NO: 16) for gapdh.
Semi-quantitative RT-PCR was used to determine relative levels of c-fos or gapdh mRNAs from L cells transfected either with vector (vector) or with 0.5 mg of pN-Cad/CTF2 (N-Cad/CTF2). The graph in FIG. 9C represents the relative abundance of c-fos-specific PCR products following quantitation of the mRNA signals shown in the upper panel.
Extracts from L cells transfected with increasing amount of pN-Cad/CTF2 were probed on WBs with anti-c-fos (FIG. 9D, upper panel), anti-β-tubulin (FIG. 9D, middle panel) or C32 (FIG. 9D, lower panel) antibodies. Bars in lower panel represent the relative amounts of c-fos protein detected on WBs shown in the upper panel.
In general terms: A western blot detects proteins with antibodies after separation by electrophoresis.

For the next assay, the target named is T1, CBP (Mus musculus, UniProt P45481).
T1 construct: a process that relies on endogenous CBP and CREB; endogenous in cells; host or cells: L cells transfected with vector or pN-Cad/CTF2
Kind of assay: Immunofluorescence staining of pN-Cad/CTF2-transfected L cells. The assay is classed as cell-based. The following applies: compared to non-transfected controls. On the procedure: Immunoprecipitations (IPs), immunoblotting and immunofluorescence. IPs were performed as described by Marambaud et al. (2002) EMBO J. 21: 1948-1956 in 4° C. HEPES buffer (25 mM HEPES, pH 7.4, 150 mM NaCl, 1× Complete protease inhibitor cocktail, Roche) containing 0.5% Nonidet P40 (NP40). For western blot (WB) analysis, cells were solubilized in 4° C. RIPA buffer (50 mM Tris-HCl, pH 8, 150 mM NaCl, 0.1% SDS, 1% NP-40, 0.5% sodium deoxycholate, 1× Complete protease inhibitor cocktail) as described by Marambaud et al. (2002). Immunofluorescence was performed as described by Georgakopoulos et al. (1999) with the following modifications: to visualize nuclei, cells were treated for 5 minutes with 4′,6-diamidino-2-phenylndole (DAPI, 1:5000; Sigma). Fluorescence microscopy and digital image acquisition were carried out using an Axioskop2 microscope (Zeizz).
To determine how N-Cad/CTF2 affects CREB-mediated transcription, the following experiments were performed. L cells transfected either with vector (vector) or pN-Cad/CTF2 (N-Cad/CTF2) plasmids were fractionated into nuclear and cytosolic fractions, and probed on WBs with anti-CBP (FIG. 11A, panel a), anti-N-cadherin (FIG. 11A, panel b), anti-β-tubulin (FIG. 11A, panel c) or anti-phosphorylated CREB (P-CREB; FIG. 11A, panel d) antibodies. […] L cells transiently transfected with pN-Cad/CTF2 were analyzed by immunofluorescence staining. […]

T1 sequence (P45481 whole entry): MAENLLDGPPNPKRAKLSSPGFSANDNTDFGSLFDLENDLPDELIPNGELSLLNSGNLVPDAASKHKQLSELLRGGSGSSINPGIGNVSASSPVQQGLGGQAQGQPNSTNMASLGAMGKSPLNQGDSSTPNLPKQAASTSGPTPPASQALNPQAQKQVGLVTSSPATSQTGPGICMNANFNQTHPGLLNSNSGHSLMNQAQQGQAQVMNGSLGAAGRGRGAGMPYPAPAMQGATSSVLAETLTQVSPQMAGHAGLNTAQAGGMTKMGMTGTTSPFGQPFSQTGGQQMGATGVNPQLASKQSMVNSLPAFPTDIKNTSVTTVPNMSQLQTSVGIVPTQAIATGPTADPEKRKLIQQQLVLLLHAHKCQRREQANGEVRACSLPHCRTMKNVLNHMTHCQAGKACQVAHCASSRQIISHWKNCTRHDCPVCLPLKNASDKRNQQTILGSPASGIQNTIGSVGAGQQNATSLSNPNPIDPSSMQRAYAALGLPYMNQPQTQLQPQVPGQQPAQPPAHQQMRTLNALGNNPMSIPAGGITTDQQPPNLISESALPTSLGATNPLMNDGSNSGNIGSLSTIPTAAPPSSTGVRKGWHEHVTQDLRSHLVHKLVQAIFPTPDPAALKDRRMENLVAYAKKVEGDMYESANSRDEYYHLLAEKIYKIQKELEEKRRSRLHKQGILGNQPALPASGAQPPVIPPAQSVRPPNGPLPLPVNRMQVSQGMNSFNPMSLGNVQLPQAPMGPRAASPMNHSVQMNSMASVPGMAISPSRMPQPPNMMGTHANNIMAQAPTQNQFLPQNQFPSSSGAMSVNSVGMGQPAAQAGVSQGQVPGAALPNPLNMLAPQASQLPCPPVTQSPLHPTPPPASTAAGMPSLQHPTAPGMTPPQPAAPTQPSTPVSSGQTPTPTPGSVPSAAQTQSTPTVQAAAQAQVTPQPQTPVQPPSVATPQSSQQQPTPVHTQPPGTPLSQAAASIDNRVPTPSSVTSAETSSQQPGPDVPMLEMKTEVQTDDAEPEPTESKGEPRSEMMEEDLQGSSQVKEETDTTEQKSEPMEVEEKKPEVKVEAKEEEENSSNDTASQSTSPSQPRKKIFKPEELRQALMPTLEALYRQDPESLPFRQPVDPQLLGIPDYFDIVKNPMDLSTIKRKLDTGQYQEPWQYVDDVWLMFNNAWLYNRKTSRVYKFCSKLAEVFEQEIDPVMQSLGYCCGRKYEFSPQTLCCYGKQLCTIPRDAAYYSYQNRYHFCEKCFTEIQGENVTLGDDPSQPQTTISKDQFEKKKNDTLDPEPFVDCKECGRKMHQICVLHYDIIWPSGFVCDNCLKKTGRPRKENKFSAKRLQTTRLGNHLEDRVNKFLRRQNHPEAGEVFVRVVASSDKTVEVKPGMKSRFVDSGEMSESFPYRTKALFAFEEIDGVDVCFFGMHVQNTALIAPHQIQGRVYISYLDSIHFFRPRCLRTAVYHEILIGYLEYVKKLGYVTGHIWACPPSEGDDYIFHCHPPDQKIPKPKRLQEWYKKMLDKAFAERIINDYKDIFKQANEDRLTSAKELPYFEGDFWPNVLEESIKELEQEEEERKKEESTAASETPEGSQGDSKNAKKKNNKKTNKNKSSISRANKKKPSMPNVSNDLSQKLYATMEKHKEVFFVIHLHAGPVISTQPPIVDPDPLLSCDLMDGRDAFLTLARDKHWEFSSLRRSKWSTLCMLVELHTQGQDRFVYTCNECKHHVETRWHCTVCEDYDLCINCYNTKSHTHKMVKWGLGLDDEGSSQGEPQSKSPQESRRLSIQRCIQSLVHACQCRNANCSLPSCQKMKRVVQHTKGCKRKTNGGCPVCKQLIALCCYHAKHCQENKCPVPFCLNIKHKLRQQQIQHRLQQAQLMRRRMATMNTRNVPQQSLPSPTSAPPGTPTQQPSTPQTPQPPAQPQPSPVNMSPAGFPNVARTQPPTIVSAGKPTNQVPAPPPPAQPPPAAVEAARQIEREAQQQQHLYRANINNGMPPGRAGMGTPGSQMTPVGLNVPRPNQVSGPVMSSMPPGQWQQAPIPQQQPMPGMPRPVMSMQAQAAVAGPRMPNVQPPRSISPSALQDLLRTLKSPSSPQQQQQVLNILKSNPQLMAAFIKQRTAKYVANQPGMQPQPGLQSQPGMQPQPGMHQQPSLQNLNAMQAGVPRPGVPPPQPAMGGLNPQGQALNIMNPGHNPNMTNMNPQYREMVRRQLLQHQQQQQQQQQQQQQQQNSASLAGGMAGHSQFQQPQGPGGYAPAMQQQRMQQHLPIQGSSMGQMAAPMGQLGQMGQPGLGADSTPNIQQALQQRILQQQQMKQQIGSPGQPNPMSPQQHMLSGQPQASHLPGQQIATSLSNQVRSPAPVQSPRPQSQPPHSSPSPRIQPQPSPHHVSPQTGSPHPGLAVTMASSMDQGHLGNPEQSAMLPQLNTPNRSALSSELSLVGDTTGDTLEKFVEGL

B1: N-Cad/CTF2: chicken cytoplasmic domain of N-cadherin (N-Cad/CTF2) inserted into vector pECE, expressed in L cells (protein)
chain: KRRDKERQAKQLLIDPEDDVRDNILKYDEEGGGEEDQDYDLSQLQQPDTVEPDAIKPVGIRRLDERPIHAEPQYPVRSAAPHPGDIGDFINEGLKAADNDPTAPPYDSLLVFDYEGSGSTAGSLSSLNSSSSGGEQDYDYLNDWGPRFKKLADMYGGGDD
As to B1, in the assay on c-fos (0.5 mg of pN-Cad/CTF2, vs vector, FIG. 9C), the “cellular c-fos mRNA” value is given as “markedly reduces”. For the same molecule, the c-fos protein entry in the assay on c-fos (increasing amount of pN-Cad/CTF2, FIG. 9D) is reported as “markedly reduces”. Further, in the assay on c-fos (pN-Cad/CTF2, FIG. 9D), the “levels of β-tubulin” value was “no effect”. Also, the “expression of gapdh mRNA” value with c-fos (pN-Cad/CTF2 vs vector, FIG. 9C) is recorded as “no effect”. In addition, the “cytoplasmic staining for N-Cad/CTF2 and CBP” value in the assay with CBP is “clear cytoplasmic staining for both N-Cad/CTF2 and CBP”.
